Experimental data reported in patent KR20220001106A (dated 2022).
Numbering of substitutions follows the chain as printed. Blank lines part the entries; values can stand above or below the binder they belong to.

Molecular target: T1, recombinant human VEGF165 (Sino biological) (human, UniProt P15692-4 27-191)
T1 construct: Sino Biological VEGF165 was used in the Octet assay
Assay: Octet red96E BLI, VEGF165 amine-coupled on AR2G sensor, antibody as analyte, 30 C

T1 sequence (P15692 other isoform, or with tags, fused parts or gaps limits assumed): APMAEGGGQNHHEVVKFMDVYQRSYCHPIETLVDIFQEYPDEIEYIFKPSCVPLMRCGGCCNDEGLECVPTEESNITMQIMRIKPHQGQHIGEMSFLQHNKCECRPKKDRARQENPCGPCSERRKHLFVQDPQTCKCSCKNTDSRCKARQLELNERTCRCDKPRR

B2: Hz1 (humanized antibody made with SEQ ID NO 28 and SEQ ID NO 29) (antibody, V domains shown)
VH: EVQLVESGGGLVKPGGSLRLSCAASGIDLNRYSLTWVRQAPGKGLEWVGIVGGSGVTYYANWAKGRFTISRDSAKNSLYLQMNSLRAEDTAVYFCARGSDRSAYAPDIWGPGTLVTVSS
VL: DIQMTQSPSSLSASVGDRVTINCQSSQSIYSNNYLAWYQQKPGKPPKLLLYQASKLASGVPSRFSGSGSGTDFTLTISSLQPEDVATYYCLGVYDDDADNAFGGGTELEIKR
notes: Whole IgG from vector pCEP6-WPRE with an Fc part
Kd: 4.71 pM | koff: 3.22e-06 s⁻¹ | kon: 685000 M⁻¹ s⁻¹

B5: Lu007 (SEQ ID NO 33, SEQ ID NO 34) (antibody, V domains shown)
VH: EVQLVESGGGLVQPGGSLRLSCAASGYDFTHYGMNWIRQAPGKGLEWVGWINTYTGEPTYAADFKRRFTFSLDTSKSTVYLQMNSLRAEDTAVYYCAKYPHYYGTSHWYFDVWGQGTLVTVSS
VL: DIQLTQSPSSLSASVGDRVTITCSASQDISNYLNWYQQKPGKAPKVLIYFTSSLHSGVPSRFSGSGSGTDFTLTISSLQPEDFATYYCQQYSTVPWTFGQGTKVEIKR
notes: Tested as a purified whole antibody, detected with anti-hIgG-Fc; also called variant ranibizumab; variant Lucentis
Kd: 12.2 pM | koff: 2.89e-06 s⁻¹ | kon: 237000 M⁻¹ s⁻¹

Binders with a lower Kd, results first:

Kd: 3.98 pM | koff: 3.08e-06 s⁻¹ | kon: 775000 M⁻¹ s⁻¹
B1: RIgG1 (rabbit antibody made with SEQ ID NO 24 and SEQ ID NO 25) (antibody, V domains shown)
VH: QSVEESGGRLVTPGTPLTLTCTVSGIDLNRYSLTWVRQAPGKGLEWIGIVGGSGVTYYANWTKGRFTISKTSTTVDLKMTSLTTEDTATYFCARGSDRSAYAPDIWGPGTLVTISS
VL: ELDMTQTPSSVSAAVGGTVTINCQSSQSVYSNNYLAWYQQKPGQPPKLLLYQASKLASGVSSRFSGSGSGTHFTLTISGVQCDDAATYYCLGVYDDDADNAFGGGTELEILR
notes: Converted from scFv to whole IgG in vector pCEP6-WPRE, which carries an Fc part; The ELISA detected it with anti-hIgG-Fc; also called 2-19 (IgG form)

Kd: 3.98 pM | koff: 3.08e-06 s⁻¹ | kon: 775000 M⁻¹ s⁻¹
B3: Hz2-F (antibody with SEQ ID NO 32 and SEQ ID NO 31) (antibody, human IgG1, L234A L235A, V domains shown)
VH: B2 VH with K13Q, A24V, V37I, G49A, S73D, A74S, S77T, F94Y, P111Q
VL: B2 VL with M4L, N22T, P45A, V85F, G104Q, E107K, L108V
notes: copies: 2 + 2

Kd: 1.93 pM | koff: 9.73e-07 s⁻¹ | kon: 505000 M⁻¹ s⁻¹
B4: Hz2 (humanized antibody made with SEQ ID NO 30 and SEQ ID NO 31) (antibody, V domains shown)
VH: B2 VH with K13Q, A24V, V37I, G49A, S73D, A74S, S77T, F94Y, P111Q
VL: B2 VL with M4L, N22T, P45A, V85F, G104Q, E107K, L108V
notes: as for B2
